Data taken from patent CN102127167A (SUZHOU IND PARK CHENJIAN ANTIBODY GROUP PHARMACEUTICAL DEV …, dated 2011).
Several values for one entry are separate records, joined by “and”; a condition that tells them apart may be missing. Equal values may be shown once. Values belong to the binder of their own block, whether it stands above or below them.

Experiments:
人TNFα [1] = target: T1, 人TNFα (human, UniProt P01375 77-233); experiment: SPR (Biacore), TNFa coupled to the chip, antibody as analyte
T1 construct: also called 人TNFa; hTNFa
T1 sequence (P01375 77-233 limits assumed): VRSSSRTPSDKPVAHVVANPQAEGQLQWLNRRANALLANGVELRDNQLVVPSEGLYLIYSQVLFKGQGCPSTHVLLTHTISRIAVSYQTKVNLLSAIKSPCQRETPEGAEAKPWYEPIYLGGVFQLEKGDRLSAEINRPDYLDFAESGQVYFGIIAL

人TNFα [2] = target: T1, 人TNFα; experiment: ELISA, plate coated at 0.1 ug/well, antibody dilution series
人TNFα [3] = target: T1, 人TNFα; experiment: cell-based or functional assay
人TNFα [4] = target: T1, 人TNFα; experiment: cell-based or functional assay; remark: listed apart in the source

Kd (人TNFα [1]): 326 pM | koff (人TNFα [1]): 0.000185 s⁻¹ | kon (人TNFα [1]): 568000 M⁻¹ s⁻¹ | lowest detected concentration relative to humira (人TNFα [2]): 0.5 fold of humira | IC50 relative to humira, L929细胞保护试验 (人TNFα [3]): ~0.2 fold of humira IC50 | neutralising activity relative to humira, L929细胞保护试验 (人TNFα [3]): ~5 fold of humira | IC50(pM), L929细胞保护试验 (人TNFα [4]): 0.56 pM and 0.938 pM and 0.46 pM | IC50(pM), L929细胞保护试验, 平均值 (人TNFα [4]): 0.51 pM
B1: 抗人TNFa抗体-01 (antibody, human IgG1, kappa)
heavy: not shown
light: EIVLTQSPDFQSVTPKEKVTITCRASQFVGYSIHWYQQKPDQSPKLLIKYASESRSGVPSRFSGSGSGTDFTLTINSLEAEDAATYYCQQSHSWHFTFGQGTKLEIKRTVAAPSVFIFPPSDEQLKSGTASVVCLLNNFYPREAKVQWKVDNALQSGNSQESVTEQDSKDSTYSLSSTLTLSKADYEKHKVYACEVTHQGLSSPVTKSFNRGEC
notes: also called 抗人TNFa-01; pCI-TNF-01

Kd (人TNFα [1]): 330 pM | koff (人TNFα [1]): 0.000188 s⁻¹ | kon (人TNFα [1]): 571000 M⁻¹ s⁻¹ | lowest detected concentration relative to humira (人TNFα [2]): 0.5 fold of humira | IC50 relative to humira, L929细胞保护试验 (人TNFα [3]): ~0.1 fold of humira IC50 | neutralising activity relative to humira, L929细胞保护试验 (人TNFα [3]): ~10 fold of humira | IC50(pM), L929细胞保护试验 (人TNFα [4]): 0.34 pM and 0.25 pM and 0.234 pM | IC50(pM), L929细胞保护试验, 平均值 (人TNFα [4]): 0.275 pM
B2: 抗人TNFa抗体-02 (antibody, human IgG1, kappa)
heavy: not shown
light: B1 light
notes: Full-length human IgG1 made in CHO cells; Same doubt about plain or PEGylated form as for m1; also called 抗人TNFa-02; pCI-TNF-02
